Test results reported in patent publication US10119137B2, “Methods used to treat cancer” (THE TRANSLATIONAL GENOMICS RESEARCH INSTITUTE, priority 2015, dated 2018).

Legend:
Format in all cases: cell-based, Human
U87 glioma cells = assay: Histone H2A.X phosphorylation immunoblot after TMZ; conditions: U87, TMZ 500 μM, control or SGEF depleted conditions
Experimental: (§1) For immunoblotting, cells were lysed in 2×SDS sample buffer (0.25 M Tris-HCl, pH 6.8, 10% SDS, 25% glycerol) containing 10 μg/mL aprotinin, 10 μg/mL leupeptin, 20 mM NaF, 2 mM sodium orthovanadate, and 1 mM phenylmethylsulfonyl fluoride. Protein concentrations were determined using the BCA assay (Pierce) with bovine serum albumin as a standard. Thirty micrograms of total protein were loaded per lane and separated by SDS PAGE. After 4° C. transfer, the nitrocellulose (Invitrogen) was blocked with either 5% nonfat milk or 5% BSA in Tris-buffered saline, pH 8.0, containing 0.1% Tween 20 (TBST) prior to addition of primary antibodies and followed with peroxidase-conjugated anti-mouse IgG or anti-rabbit IgG. Protein was detected using SuperSignal West Dura Chemiluminescent Substrate (Thermo Scientific) with a UVP BioSpectrum 500 Imaging System (Upland, Calif.). Densitometry was calculated via Image J software.

[1] = test system: SGEF promoter NF-κB p65 consensus sequence; assay: Biotinylated electrophoretic mobility shift assay, NF-κB binding site of the SGEF promoter; conditions: T98G nuclear proteins 2 hours after TWEAK 100 ng/mL
Experimental: T98G glioma cells were plated at a density of 3×10^6 in 100 mm^2 tissue culture dishes in normal growth medium. After 12 h, cells were cultured under reduced serum (0.5% FBS) for an additional 16 h before TWEAK (100 ng/mL) addition for 2 h. Isolation of cell nuclear protein was carried out using the NE-PER kit (Pierce) according to the protocol of the manufacturer. Protein-DNA complexes were detected using biotin end-labeled double-stranded DNA 23-mer probes containing the NF-κB binding sites within the SGEF promoter (NF-κB-SGEF wt target sequence: 5′-GTCTAGGAGGCAAATCCCAGAAA-3′ (SEQ ID NO:5); NF-κB-SGEF mt target sequence: 5′-GTCTAGGAGCCAGATCGCAGAAA-3′(SEQ ID NO:6)). The binding reactions were done using the LightShift kit (Pierce) according to the protocol of the manufacturer. Where indicated, 200-fold molar excess of unlabeled NF-κB-SGEF wt oligonucleotides or anti-p65 antibody was included. The reaction products were resolved by gel electrophoresis and detected by chemiluminescence according to the protocol of the manufacturer (Pierce).

[2] = test system: T98G and U118 glioma cells; assay: TWEAK stimulation: SGEF mRNA (qPCR) and protein (western blot) expression; conditions: TWEAK 100 ng/mL, increase apparent within two hours
Experimental: Human astrocytoma cell lines U87, U118, and T98G (American Type Culture Collection), as well as primary glioblastoma xenograft cells (GBM & GBM TMZ-R lines) were maintained in DMEM (Gibco, USA) supplemented with 10% heat-inactivated fetal bovine serum (FBS; Gibco, USA) at 37° C. with 5% CO2. For all assays with TWEAK treatment, cells were cultured in reduced serum (0.5% fetal bovine serum) for 16 h before stimulation with recombinant TWEAK at 100 ng/mL in DMEM+0.1% bovine serum albumin for the indicated times.
as §1, with “After 4° C. transfer, the nitrocellulose (Invitrogen) was blocked with either 5% nonfat milk or 5% BSA in Tris-buffered saline, pH 8.0, containing 0.1% Tween 20 (TBST) prior to addition of primary antibodies and followed with peroxidase-conjugated anti-mouse IgG or anti-rabbit IgG.” left out, “software. […]” for “software.”

Molecule | time to phosphorylation of H2A.X after TMZ treatment (U87 glioma cells) [min] | NF-κB binding to the SGEF promoter region [1] | SGEF mRNA levels [2] | SGEF protein levels [2]
Cn1nnc2c(C(N)=O)ncn2c1=O [TMZ, temozolomide] | ≤ 30 |  |  | 
TWEAK: Human recombinant TWEAK, tumor necrosis factor-like weak inducer of apoptosis, cytokine ligand of Fn14 (protein) SAPKGRKTRARRAIAAHYEVHPRPGQDGAQAGVDGTVSGWEEARINSSSPLRYNRQIGEFIVTRAGLYYLYCQVHFDEGKAVYLKLDLLVDGVLALRCLEEFSATAASSLGPQLRLCQVSGLLALRPGSSLRIRTLPWAHLKAAPFLTYFGLFQVH |  | NF-κB binds to the SGEF promoter region | increased | increased
